The target of assay [1] is T1, fibrin (Homo sapiens, UniProt P02671+P02675+P02679).
T1 construct: the mixture was clotted by the addition of 10 U/mL of thrombin; After 10 minutes at 37° C., the fibrin was compressed
T1 sequence (P02671 36-629 limits assumed): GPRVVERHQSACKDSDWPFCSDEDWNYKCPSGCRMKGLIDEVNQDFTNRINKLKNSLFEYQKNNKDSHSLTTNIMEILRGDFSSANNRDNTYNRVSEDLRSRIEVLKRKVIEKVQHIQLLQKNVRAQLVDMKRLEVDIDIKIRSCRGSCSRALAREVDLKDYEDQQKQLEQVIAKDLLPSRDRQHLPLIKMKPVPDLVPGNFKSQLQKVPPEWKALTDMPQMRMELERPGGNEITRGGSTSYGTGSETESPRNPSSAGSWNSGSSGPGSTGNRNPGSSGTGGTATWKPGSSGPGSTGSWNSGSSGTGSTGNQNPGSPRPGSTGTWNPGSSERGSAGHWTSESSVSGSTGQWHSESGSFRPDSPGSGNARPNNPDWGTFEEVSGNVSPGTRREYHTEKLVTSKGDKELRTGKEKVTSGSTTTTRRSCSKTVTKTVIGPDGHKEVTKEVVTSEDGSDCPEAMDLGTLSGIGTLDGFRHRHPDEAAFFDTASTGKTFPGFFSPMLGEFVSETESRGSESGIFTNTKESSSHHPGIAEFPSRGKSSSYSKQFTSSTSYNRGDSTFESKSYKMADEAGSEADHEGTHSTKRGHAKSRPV
T1 sequence (P02675 45-491 limits assumed): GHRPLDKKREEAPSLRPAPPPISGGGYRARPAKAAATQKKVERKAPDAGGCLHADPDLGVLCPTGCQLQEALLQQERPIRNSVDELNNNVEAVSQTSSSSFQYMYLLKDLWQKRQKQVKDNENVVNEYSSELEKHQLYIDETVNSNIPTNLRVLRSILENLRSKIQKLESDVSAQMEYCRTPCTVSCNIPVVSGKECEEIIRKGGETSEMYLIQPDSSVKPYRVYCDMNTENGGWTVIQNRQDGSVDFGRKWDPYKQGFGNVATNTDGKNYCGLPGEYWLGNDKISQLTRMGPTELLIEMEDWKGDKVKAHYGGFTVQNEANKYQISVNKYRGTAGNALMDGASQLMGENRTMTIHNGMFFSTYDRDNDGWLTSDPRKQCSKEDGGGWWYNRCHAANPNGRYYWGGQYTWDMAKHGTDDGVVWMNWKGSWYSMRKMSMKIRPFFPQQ
T1 sequence (P02679 27-437 isoform P02679-2 limits assumed): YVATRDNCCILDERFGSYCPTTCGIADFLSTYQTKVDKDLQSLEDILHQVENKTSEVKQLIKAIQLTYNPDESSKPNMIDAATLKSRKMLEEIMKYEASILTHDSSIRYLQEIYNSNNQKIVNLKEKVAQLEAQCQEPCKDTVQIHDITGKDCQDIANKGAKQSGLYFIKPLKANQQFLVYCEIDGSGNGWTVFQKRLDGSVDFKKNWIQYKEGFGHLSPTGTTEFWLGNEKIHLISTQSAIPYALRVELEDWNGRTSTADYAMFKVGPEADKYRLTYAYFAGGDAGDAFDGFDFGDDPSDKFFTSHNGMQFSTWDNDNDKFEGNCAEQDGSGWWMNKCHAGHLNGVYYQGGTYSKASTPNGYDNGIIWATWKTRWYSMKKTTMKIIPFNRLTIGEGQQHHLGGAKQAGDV
Description: Fibrin binding of radiolabeled peptides. The following applies: unbound material analyzed by reverse phase HPLC. On the procedure: By reverse phase HPLC, peptides containing portions of the N- and C-terminal amino acid sequences of the DDAVY. . . peptide were separated from the full length DDAVY. . . peptide.
(§1) Binding of radiolabeled DDAVY. . . peptide prepared in accordance with Example 3 above was conducted in the presence of the following proteins: human albumin (Kabi), bovine serum albumin (BSA), hemoglobin, and cytochrome C. Fibrin binding was performed by incubating 0.5 mg/mL fibrinogen, 0.1% Triton X-100, 0.15M NaCl, 0.1M Tris, pH 7.4 (TBS), 10 mM CaCl2, and ^125 I-labeled DDAVY. . . peptide and the mixture was clotted by the addition of 10 U/mL of thrombin. After 10 minutes at 37° C., the fibrin was compressed by centrifugation (10-12,000 rpm for 10 minutes), washed thrice with TBS and the bound radioactivity was quantitated using a gamma Counter. Proteins were included in the binding mixture at these concentrations: hemoglobin (100 micromolar); human albumin (Kabi) (100 micromolar); and cytochrome C (500 micromolar). Fibrin concentration was approximately 1.0 micromolar.

Assay [2] concerns the target T1, fibrin. Description: Inhibition of 125I-DDAVY. . . peptide binding to fibrin (competition). On the procedure:
as §1
Purified recombinant platelet Factor XIII A-chains were used to inhibit the binding of DDAVY. . . peptide to fibrin. At a concentration of 0.4 mg/mL fibrinogen, 2.0 mg/mL of recombinant platelet Factor XIII inhibited the binding of DDAVY. . . peptide to fibrin by 76%. In another experiment, purified placental Factor XIII A-chains were used to inhibit DDAVY. . . peptide binding to fibrin. Binding was conducted in the presence of 1.0 mg/mL fibrinogen, 5 nanomoles of placental Factor XIII and approximately 0.05 nanomoles of the DDAVY. . . peptide. Under these conditions, the binding of the peptide to fibrin was inhibited by nearly 44%.
Binding of radiolabeled DDAVY. . . peptide (approximately 52 pmoles) was mixed with unlabeled DDAVY. . . peptide (approximately 34 nanomoles;=660-fold molar excess over radiolabeled peptide) and the mixture was bound to 0.1 mg/mL fibrin. Under these conditions, the binding of radiolabeled peptide was inhibited by nearly 83%. […] In these experiments and in the experiments conducted in the presence of XIII, binding values were corrected for nonspecific binding observed in the absence of thrombin and/or in the presence of XIII or unlabeled DDAVY. . . peptide alone.

Assay [3] has as its system Factor XIIIa. Description: Factor XIIIa-catalyzed crosslinking of fibrin II (SDS-PAGE). The following applies: human fibrinogen 0.27 mg/mL. It counts as biochemical. The protocol:
This example illustrates the effect of DDAVY. . . peptide and NKLIV. . . peptide on fibrin crosslinking by Factor XIIIa. Purified human fibrinogen (0.27 mg/mL) was mixed with increasing concentrations (56 micromolar to 280 micromolar) of the DDAVY. . . peptide and incubated for 15 minutes at 37° C. Then, calcium chloride was added in 0.1M Tris, pH7.4 containing 0.15M NaCl (Tris-buffered saline, TBS) to make the final calcium concentration equal 10 mM. The mixture was then clotted by the addition of 10 U/mL thrombin. Thrombin also served to activate the catalytic amounts of Factor XIII present in the fibrinogen preparation. The mixture was incubated for an additional 15 minutes at 37° C. and then solubilized in SDS-PAGE buffer containing 5% sodium dodecylsulfate (SDS), 4M urea, 10mM Tris, pH7.4, 1.0 mM ethylenediaminetetraacetic acid (EDTA), 1% 2-mercaptoethanol, and 0.001% bromophenol blue. The mixture was boiled for 5 minutes, cooled, and then separated by electrophoresis on a 4-15% linear gradient polyacrylamide gel (SDS-polyacrylamide gel electrophoresis, SDS-PAGE). After electrophoresis, the gel was stained using Coomassie Brilliant Blue and destained. Control incubations were conducted simultaneously that contained no peptide.
The reaction was also conducted as described for the DDAVY. . . peptide, except that NKLIV. . . peptide was substituted for the DDAVY. . . peptide. […]

Ends that are not written are not given here.

With “GEVNDIKTRSWSYGQF [C-terminal portion of the DDAVY. . . peptide separated by HPLC]”, the binding to fibrin entry in assay [1] is listed as “did not bind to fibrin”. In the case of “placental Factor XIII A-chains: purified placental Factor XIII A-chains”, the “inhibition of the binding of DDAVY. . . peptide to fibrin” value in assay [2] (1.0 mg/mL fibrinogen, 5 nanomoles placental Factor XIII, approximately 0.05 nanomoles DDAVY. . . peptide) is listed as ~44%.

Regarding “recombinant platelet Factor XIII: Purified recombinant platelet Factor XIII A-chains”, the “inhibition of the binding of DDAVY. . . peptide to fibrin” value in assay [2] (0.4 mg/mL fibrinogen, 2.0 mg/mL recombinant platelet Factor XIII) was determined as 76%. As for “KTRSWSYGQF [C-terminal portion of the DDAVY. . . peptide separated by HPLC]”, the binding to fibrin result in assay [1] is reported as “did not bind to fibrin”. Consider “DDAVYLDNEKEREEYVLNDIGVIFYGEVNDIKTRSWSYGQF-amide (DDAVYLDNEKEREEYVLNDIGVIFYGEVNDIKTRSWSYGQF-NH2) [DDAVY. . . peptide]”, for which, in assay [1], the binding to fibrin entry is “bound to fibrin”. In assay [3] (280 micromolar peptide), the “inhibition of fibrin crosslinking” value is ~50%. In addition, in assay [3] (10 U/mL thrombin, 10 mM calcium), the “concentration at which inhibition of fibrin crosslinking could be detected” value is reported as “around 112 micromolar”. For the same substance, the “inhibition of binding of radiolabeled DDAVY. . . peptide to fibrin” value in assay [2] (1.0 mg/mL unlabeled peptide, 2.0 micrograms/mL radiolabeled peptide, 0.2 mg/mL fibrin) is on record as “inhibited completely”; in assay [2] (approximately 34 nanomoles unlabeled peptide (660-fold molar excess over approximately 52 pmoles radiolabeled), 0.1 mg/mL fibrin), ~83%.

The record behind these values is US5328898A, “Factor XIIIA fibrin binding fragments” (Duke University, priority 1990, dated 1994).
